# Source: the supplement of paper PMC12636428
# System: Saccharomyces cerevisiae
# Test: transcriptional activation domain activity (GFP:mCherry ratio, weighted mean of sorted bins, harmonized to initial dataset scale) (arbitrary fluorescence ratio units); higher = stronger transcriptional activation
# Conditions: beta-estradiol 1 µM; induction time 4 h
# In short: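 The listed activation activity is a read-weighted mean of bin median fluorescence, averaged across barcodes and linearly mapped onto the initial dataset scale. Barcoded tiles, fused to an estradiol-inducible synthetic transcription factor, were integrated at URA3 in yeast diploids bearing a GFP reporter. Cells were held 4 hours at 30 °C in SC with 1 uM beta-estradiol, sorted into 8 GFP:mCherry bins, and sequenced, and tiles with fewer than 50 reads were excluded.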
row,Sequence,transcriptional activation domain activity
1,ISLVYGVRLAIRSSIFVTVRTHLARSIRYQSGLRAKQPIPTRLFLLYFLQLKY,56900
2,ISMEKIGRRAFNKGMKNIDEGPETENDATENSLTTILNDLEGPLEDFSENFID,34300
3,ISNHQVYADWWYAWCLTYFMGTHKDIFIVLKKSLKWLPIVGWGMQFFNFIFLA,48400
4,ISSISSIFPIFFPYFPSIYLIFFFIFFLPFFPSLPILLFLLFLLFLLFTLPLC,43700
5,ISSSEKESDGENDSDSEENEQNDQSEIFPEFLGRRDPWQAVTVFILALLVFRN,66500
6,ISTAYFSNECGLVDRLITLAFLALKSKTDMSMVAYHSYCAIIEASLHSRGIWN,57300
7,ISVLGNQQIPGISHGDGLLPDVDGLLGNDTFWSFTDAAWMGEIEDNISGFIWD,143000
8,ISVLLVPYAWAILLAFLLLPVFLCVICMDWTYIPFYLPFFPMIGVFSIVIPLF,21100
9,ISYVSLEIRRTVFGLRLFAVAFYCTFFYWLMIRPNCKARFWCNFQPFSWIQAI,43100
10,ITALVIFWSIPVAFVGSLSNLDSLTNKVHFLRFLNHLPKKLKGLVTSLLPTIL,34700
11,ITFLFIFFFYFFTYSFFYISFFRTCFPEFAHQMFEMVLLWNLFLLFVFCLFFF,57600
12,ITGTAYLGKFLRNTLGYDLEVFHAELMVKADIFSLNPHEIMNLIVILFHLMLY,57900
13,ITHCPSTRVAYTYIVGLSTNAVMIGFVLCPHCFLAFQNPSQTLWFLSLFLLCL,47700
14,ITLYPPNPYTNEPVPIRPISYLHLSGLLNMYVIRRLRRENWIRIFFRILFPFF,26700
15,ITMCSVTSVGYLGIVRWLVICLGFQPYKLRCVTLVYLTHVMTFFCIIILGIFN,68800
16,ITMQQIQRDSDKYLCIQGVFELFRSPLYTVLTLDKSVLGPTVLVRLLTVLAER,39400
17,ITNFSHPVSWLGTISPLSSLISSSLSFLSEFFSLFPLFFSFFLLFSPSISSWF,67500
18,ITNGLYTGLGIKVPITKLQKYTPLEVALHSWRLVYMYFWSSFCLLIVCLIIFL,65800
19,ITPYPVLLSGEDTSSKISRMRKVLRDRARTDNWIYLIPTLSTLAWLFNYRCRT,66100
20,ITQMQQTDFYHVDQDDYVHSFVIHNSRLMWNVAIRAIVMRFIELQSQASLLQY,51800
21,ITQRLGENIICAVCITYLHSLLLVTILDRSEGCLLQYSLRMHIASKFQPSHQF,51500

row,Sequence,transcriptional activation domain activity
1,ITQVEDRSKGYLIGLVKELVAEYVEDLNALVLLACSLKVGIQVSSAAGMIYKK,53600
2,ITVFNYTVYDIISPTGTNYLAFMCWIGLWSLVFHWILAITNCCNWLRYVTRFP,32700
3,ITVYMVIIIFCLFQFFLFLIIVGLVPRIDTTYFGWSCWGYGRIIFSWWISGSF,34400
4,ITWSQLRRRFTPGFETFLDIGIERGWYSCNNTLQVMVFRWVFIPWLQQELSAY,30600
5,IVCGCMGAAGFRYFLNLPFLWFFLLHWCWWFTNDYLLYHVLVQEHTLPFNKFV,32500
6,IVCRTEKTSHMLIDFSEHLRINVYVLGATFVRLVHLLKVKIPLVDPVLYIVRF,59900
7,IVEGLLGVDFIWQDNLPDLIDQFTNLLTLGLDFQAIDFHGGLSWNYLPSTFIN,63500
8,IVFLFLCFAGFWMCVVCLLLLLYTAVPLIPPHSSSSFDSFGLFMLLLVSCMRF,48000
9,IVFLLRVLIRCLPTLTQILDFELVSAELSLAELPDTQFKLKELGVSTKVVFTQ,45800
10,IVIPGGRPGSVGGGGWFGGSSVFLEGLEGLEDGVMFGNAWEFDLLDLEWLFPF,121000
11,IVITCLPVTLLLFGKMVDVLDDYYLGIFELVLLFFAFYIFPIFYIFARVILLV,53800
12,IVKGTDAQQLAQIVVANLFCAILMRQDYVINAFFNFFCSVPTSWPLAIRRVCA,53100
13,IVLGFLPIKSWQQHCFYIIMSFGSFVSTAFYSRFVELWGLLWPLWYLTILICV,42600
14,IVLSVLCSLLNTTLKYNPATWRVPYDHVVFKDSRQILVSYCLQFLLVLILYPV,46600
15,IVLYLRCFWLSVMFYTYSLFFIKMTFLLNYYRLLLVSKMRSVCIAAIVIIVLW,72100
16,IVMGKGTVHLCYLILSFFMYLLYSLLSHTQNILLDPLHTLFVSTFCLLHHSVF,56200
17,IVNFTLLVLIVPRLSIWCRPHSKRMHGAGVWDSFVLARASIFVSVLGVLCVAL,54400
18,IVQLHLKIHGAWLGRIRCDHCPKFHIEKFCWAACGGPQGLRRIIEHYLKVLNW,39000
19,IVRIVFFPTIFSFFNFFAVWFYQRSWILLPFPELYECFALVAMFYLLVVYVTP,46200
20,IVSPFSTSVRSVSSCVELIRQGRGALATSITGYKYLILYGQVMMMLKIFTFYF,55600
21,IVVVVSPGVLHVDVGITILYGEVIVGLRTGTKDVLLRWKIVQVERRWLGYTPE,30500

row,Sequence,transcriptional activation domain activity
1,IVVYGANGGNLGENCNREFSERCVPVFRARATVFAELTWLILVSAWEFKSIRR,51000
2,IWCRKCNLGSILYVLARYGTLNCLLVSSLSLVTGFVVNMIFHIILGLLLARAY,65100
3,IWDLWTFGGLDFWGLGFGIWDLGLGFGDWDFIYPPPLPVSVFFLLFLSFGVCW,56900
4,IWGSANTLPKYLYFISRYFGLLGQLVVSTNLVPMFCFDYLVWSFGFLFTLILS,87200
5,IWIIQCCVLPLCLHFGSIFPGLQYTLLAFLPYYCCFSHYFPVLIPVLILICFI,63700
6,IWMILEIARSTLVFFRIYNFGHFVYNLVTKFDLMAIIPLLLVTLLPQIWFFCF,33800
7,IWRCTLFLLYGGHFEAALTCIRASASIGTFRDINVACGRNVAFFLSVLIEKKR,63000
8,IWRRQQVELWCNYRVPGRQWLFGHKRLRHVIHLIPGRTHLSLYSSVDRIFCLH,48600
9,IWSFVILLRETVLCGSIVLAISATSDYFYYGLWTFPPYQWLNFNLTQSLAVFY,66800
10,IWVAPWNAGKILFFLIRYLVFVDTSVSIVYLAGGPLTLSRCHTLFGWFTASFT,74800
11,IWVHHVAYVRNCLAQLIFTWLDEYWRPLSDACILPRLRSWVLSRFRDAQLVQG,78700
12,IYAYRESWGIDGAVFCKSWMLYWLLMDIHWQVMETLIACYIPMQFSPFFVFPW,61700
13,IYCAGWVFRYFFLFPYRLSLLLAATLFFFLALPIVLYFKNDEWQRWLFRFYCQ,57500
14,IYESALQTEHHKQGIGRSIAEAVKNRELSGFDQFQQIISFCLCVLKQLYRRFT,37600
15,IYETVNTITELSCLLPGGPWFPHARELWWYASEPAGVRYVAVLLSPTLRSLRL,69700
16,IYFTFRILLYAIWCALAKVHRWNKTTLWNTLCKYLSRLVAATKSRTKTHAPWL,49300
17,IYGSTAKPFPYTEGYHFLLKFVTEKFEKAEVLRIVRALGLFRPSLIALQMPLT,42800
18,IYIFPINTTIASFALGYLSIFYLIYAILTVLPTFFFDCPYGTPFSALMWRISH,62300
19,IYTNRFVSGDDGSNSKTKNLDSNMFSNDFNFENQFDEQVSEFCSKMNQVCGTR,74400
